Measurements published in article PMC5127646 (2016).

B1: SmN peptide, residues 219-229 (GMRPPPPGIRG) [human] / RBM5 OCRE domain (residues 451-511), wild type [human] (parent complex)
chain 1: GMRPPPPGIRG
chain 2: GAMGTKYAVPDTSTYQYDESSGYYYDPTTGLYYDPNSQYYYNSLTQQYLYWDGEKETYVPAAES

Variants of: B1
Test: NMR titration (chemical shift perturbation score); 1:10 ratio of OCRE:peptide; read off a plot

| ratio to parent | Variant |
| --- | --- |
| ~0.05 | chain 1 GMEPPPPGIEG [chain 1 R3E, chain 1 R10E] |
| ~0.24 | chain 1 GMAPPPPGIAG [chain 1 R3A, chain 1 R10A] |
| ~0.51 | chain 1 GMAPPPPGIRG [chain 1 R3A] |
| ~0.19 | chain 1 GMEPPPPGIRG [chain 1 R3E] |
| ~0.27 | chain 1 GMRAPAPGIRG [chain 1 P4A, chain 1 P6A] |
| ~0.54 | chain 1 GMRPPPPGIEG [chain 1 R10E] |
| ~0.67 | chain 1 GMRPPPPGIAG [chain 1 R10A] |
